B1: Eaf6 (natural protein)
chain: MTDELKSYEALKAELKKSLQDRREQEDTFDNLQQEIYDKETEYFSHNSNNNHSGHGGAHGSKSHYSGNIIKGFDTFSKSHHSHADSAFNNNDRIFSLSSATYVKQQHGQSQND
B2: Gal4-VP16 fusion protein (other)
chain: MKLLSSIEQACDICRLKKLKCSKEKPKCAKCLKNNWECRYSPKTKRSPLTRAHLTEVESRLERLEQLFLLIFPREDLDMILKMDSLQDIKALLTGLFVQDNVNKDAVTDRLASVETDMPLTLRQHRISATSSSEESSNKGQRQLTVSAPPTDVSLGDELHLDGEDVAMAHADALDDFDLDMLGDGDSPGPGFTPHDSAPYGALDMADFEFEQMFTDALGIDEYGG
B3: Esa1 (enzyme)
chain: MSHDGKEEPGIAKKINSVDDIIIKCQCWVQKNDEERLAEILSINTRKAPPKFYVHYVNYNKRLDEWITTDRINLDKEVLYPKLKATDEDNKKQKKKKATNTSETPQDSLQDGVDGFSRENTDVMDLDNLNVQGIKDENISHEDEIKKLRTSGSMTQNPHEVARVRNLNRIIMGKYEIEPWYFSPYPIELTDEDFIYIDDFTLQYFGSKKQYERYRKKCTLRHPPGNEIYRDDYVSFFEIDGRKQRTWCRNLCLLSKLFLDHKTLYYDVDPFLFYCMTRRDELGHHLVGYFSKEKESADGYNVACILTLPQYQRMGYGKLLIEFSYELSKKENKVGSPEKPLSDLGLLSYRAYWSDTLITLLVEHQKEITIDEISSMTSMTTTDILHTAKTLNILRYYKGQHIIFLNEDILDRYNRLKAKKRRTIDPNRLIWKPPVFTASQLRFAW
B4: Eaf2 (natural protein)
chain: MSSSDIFDVLNIKQKSRSPTNGQVSVPSSSAANRPKPQVTGMQRELFNLLGENQPPVVIKSGNNFKEKMLSTSKPSPWSFVEFKANNSVTLRHWVKGSKELIGDTPKESPYSKFNQHLSIPSFTKEEYEAFMNENEGTQKSVESEKNHNENFTNEKKDESKNSWSFEEIEYLFNLCKKYDLRWFLIFDRYSYNNSRTLEDLKEKFYYTCRNYFKASDPSNPLLSSLNFSAEKEIERKKYLQRLLSRSAAEIAEEEALVVESKKFEMAAKRTLAERESLLRLLDSPHSDQTITQYLTSQGMSQLYNALLADKTRKRKHDLNIPENPWMKQQQQFAQHRQLQQLNVKKSEVKENLSPKKTKRQRQEMQTALKRKSESAYAEQLLKDFNSDERKALGVITHGEKLSPGVYLRSTKLSTFKPALQNKILAILQELSLPSRPVMPSFDVMERQEELLKKINTLIDLKKHVDKYEAGMSITK
B5: Epl1 (natural protein)
chain: MPTPSNAIEINDGSHKSGRSTRRSGSRSAHDDGLDSFSKGDSGAGASAGSSNSRFRHRKISVKQHLKIYLPNDLKHLDKDELQQREVVEIETGVEKNEEKEVHLHRILQMGSGHTKHKDYIPTPDASMTWNEYDKFYTGSFQETTSYIKFSATVEDCCGTNYNMDERDETFLNEQVNKGSSDILTEDEFEILCSSFEHAIHERQPFLSMDPESILSFEELKPTLIKSDMADFNLRNQLNHEINSHKTHFITQFDPVSQMNTRPLIQLIEKFGSKIYDYWRERKIEVNGYEIFPQLKFERPGEKEEIDPYVCFRRREVRHPRKTRRIDILNSQRLRALHQELKNAKDLALLVAKRENVSLNWINDELKIFDQRVKIKNLKRSLNISGEDDDLINHKRKRPTIVTVEQREAELRKAELKRAAAAAAAAKAKNNKRNNQLEDKSSRLTKQQQQQLLQQQQQQQQNALKTENGKQLANASSSSTSQPITSHVYVKLPSSKIPDIVLEDVDALLNSKEKNARKFVQEKMEKRKIEDADVFFNLTDDPFNPVFDMSLPKNFSTSNVPFASIASSKFQIDRSFYSSHLPEYLKGISDDIRIYDSNGRSRNKDNYNLDTKRIKKTELYDPFQENLEIHSREYPIKFRKRVGRSNIKYVDRMPNFTTSSTKSACSLMDFVDFDSIEKEQYSREGSNDTDSINVYDSKYDEFVRLYDKWKYDSPQNEYGIKFSDEPARLNQISNDTQVIRFGTMLGTKSYEQLREATIKYRRDYITRLKQKHIQHLQQQQQQQQQQQQQAQQQKQKSQNNNSNSSNSLKKLNDSLINSEAKQNSSITQKNSS
B6: Yng2 (natural protein)
chain: MDPSLVLEQTIQDVSNLPSEFRYLLEEIGSNDLKLIEEKKKYEQKESQIHKFIRQQGSIPKHPQEDGLDKEIKESLLKCQSLQREKCVLANTALFLIARHLNKLEKNIALLEEDGVLAPVEEDGDMDSAAEASRESSVVSNSSVKKRRAASSSGSVPPTLKKKKTSRTSKLQNEIDVSSREKSVTPVSPSIEKKIARTKEFKNSRNGKGQNGSPENEEEDKTLYCFCQRVSFGEMVACDGPNCKYEWFHYDCVNLKEPPKGTWYCPECKIEMEKNKLKRKRN
B7: Eaf1 (natural protein)
chain: MSSRPSSAVPNSASLSEDQSSDRSKFPKADDLIDERDRKLTELYCVSRLNQLLELTDENKLRKEIDAFLKKNDIRRGIRFDEASLPKLLHTAATPITKKKLKDVNLINVPNQRLSDSKMSRELPENSENVSVKSESHFVPSHDNSIRENMMDSLRPAEKTGGMWNKRPLESTMGGEEERHEKRQKMQSQSLESSNNSEMASLPISPRPPVPNALAHYTYYENIEYPPADPTEVQPAVKFKDPLIKNIMAKEIDTSDHYNENNVDALETVFLLMNDYIPSKIPQALPLAELKYMSQTLPLINLIPRAHKALTTNIINNALNEARITVVGSRIEELRRLGLWSLRQPKRFIDPWKQHNTHQNILLEEAKWMQADFKEGHKYKVAICTAMAQAIKDYWTYGEICCVKRKTLLPGKENKLSDDGRISEKSGRPSDTSRNDSDISIAGKDDIGIIANVDDITEKESAAANDNDENGKNEAGAKSDFDFADGLLSQEGAHDQIISSIDTKLLLKKPSSSSEVVLIQHEVAASSALIETEESKKELAPPFKLSIFVDELNTFEKTLIQDLPLYNGINEERPKKDDSLPFIPISKSVVSLDDNGFYKLLERQLIDEEPSISQLSKRRGMFYGNRRNHYLRPPAVPSLRYLQNRTPTIWLSEDDQELVKNINTYGYNWELISAHMTHRLTYSYLSNIERRTPWQCFERFVQLNERFNFSDLKGPRAHSAQQWLIEAHKFQQRQNRRISPLGVNTESIQRGHRRLRWASMFEAIRKCMKKRENTPRPNPTQPRKPLDCKNMKVPTPAEMSLLKAQRDEALRRDIQLRRTVKNRLQQRQQQSQQAHSSRAQSPIPSNGKSSSNLARNGQASAPRPNQKQYTEQDIIESYSRKLLEQKPDIGPEMALKAAKNYYRTLREQQQQLKQHQIQQQRQQLQEESSHVQQLQQLQPGSQAPPPKSSPSQSSLSNISNINSAPRIKSPTPQEILQRFQKQ

The target of the assay “Yng2” is B6. Put plainly: cryo-EM structure.
The target in the assay “Epl1” is B5. Put plainly: cryo-EM structure.
The target in the next assay is Tra1 (Saccharomyces cerevisiae, UniProt P38811 1-3744). Description: cross-linking.
Tra1, sequence (P38811 whole entry): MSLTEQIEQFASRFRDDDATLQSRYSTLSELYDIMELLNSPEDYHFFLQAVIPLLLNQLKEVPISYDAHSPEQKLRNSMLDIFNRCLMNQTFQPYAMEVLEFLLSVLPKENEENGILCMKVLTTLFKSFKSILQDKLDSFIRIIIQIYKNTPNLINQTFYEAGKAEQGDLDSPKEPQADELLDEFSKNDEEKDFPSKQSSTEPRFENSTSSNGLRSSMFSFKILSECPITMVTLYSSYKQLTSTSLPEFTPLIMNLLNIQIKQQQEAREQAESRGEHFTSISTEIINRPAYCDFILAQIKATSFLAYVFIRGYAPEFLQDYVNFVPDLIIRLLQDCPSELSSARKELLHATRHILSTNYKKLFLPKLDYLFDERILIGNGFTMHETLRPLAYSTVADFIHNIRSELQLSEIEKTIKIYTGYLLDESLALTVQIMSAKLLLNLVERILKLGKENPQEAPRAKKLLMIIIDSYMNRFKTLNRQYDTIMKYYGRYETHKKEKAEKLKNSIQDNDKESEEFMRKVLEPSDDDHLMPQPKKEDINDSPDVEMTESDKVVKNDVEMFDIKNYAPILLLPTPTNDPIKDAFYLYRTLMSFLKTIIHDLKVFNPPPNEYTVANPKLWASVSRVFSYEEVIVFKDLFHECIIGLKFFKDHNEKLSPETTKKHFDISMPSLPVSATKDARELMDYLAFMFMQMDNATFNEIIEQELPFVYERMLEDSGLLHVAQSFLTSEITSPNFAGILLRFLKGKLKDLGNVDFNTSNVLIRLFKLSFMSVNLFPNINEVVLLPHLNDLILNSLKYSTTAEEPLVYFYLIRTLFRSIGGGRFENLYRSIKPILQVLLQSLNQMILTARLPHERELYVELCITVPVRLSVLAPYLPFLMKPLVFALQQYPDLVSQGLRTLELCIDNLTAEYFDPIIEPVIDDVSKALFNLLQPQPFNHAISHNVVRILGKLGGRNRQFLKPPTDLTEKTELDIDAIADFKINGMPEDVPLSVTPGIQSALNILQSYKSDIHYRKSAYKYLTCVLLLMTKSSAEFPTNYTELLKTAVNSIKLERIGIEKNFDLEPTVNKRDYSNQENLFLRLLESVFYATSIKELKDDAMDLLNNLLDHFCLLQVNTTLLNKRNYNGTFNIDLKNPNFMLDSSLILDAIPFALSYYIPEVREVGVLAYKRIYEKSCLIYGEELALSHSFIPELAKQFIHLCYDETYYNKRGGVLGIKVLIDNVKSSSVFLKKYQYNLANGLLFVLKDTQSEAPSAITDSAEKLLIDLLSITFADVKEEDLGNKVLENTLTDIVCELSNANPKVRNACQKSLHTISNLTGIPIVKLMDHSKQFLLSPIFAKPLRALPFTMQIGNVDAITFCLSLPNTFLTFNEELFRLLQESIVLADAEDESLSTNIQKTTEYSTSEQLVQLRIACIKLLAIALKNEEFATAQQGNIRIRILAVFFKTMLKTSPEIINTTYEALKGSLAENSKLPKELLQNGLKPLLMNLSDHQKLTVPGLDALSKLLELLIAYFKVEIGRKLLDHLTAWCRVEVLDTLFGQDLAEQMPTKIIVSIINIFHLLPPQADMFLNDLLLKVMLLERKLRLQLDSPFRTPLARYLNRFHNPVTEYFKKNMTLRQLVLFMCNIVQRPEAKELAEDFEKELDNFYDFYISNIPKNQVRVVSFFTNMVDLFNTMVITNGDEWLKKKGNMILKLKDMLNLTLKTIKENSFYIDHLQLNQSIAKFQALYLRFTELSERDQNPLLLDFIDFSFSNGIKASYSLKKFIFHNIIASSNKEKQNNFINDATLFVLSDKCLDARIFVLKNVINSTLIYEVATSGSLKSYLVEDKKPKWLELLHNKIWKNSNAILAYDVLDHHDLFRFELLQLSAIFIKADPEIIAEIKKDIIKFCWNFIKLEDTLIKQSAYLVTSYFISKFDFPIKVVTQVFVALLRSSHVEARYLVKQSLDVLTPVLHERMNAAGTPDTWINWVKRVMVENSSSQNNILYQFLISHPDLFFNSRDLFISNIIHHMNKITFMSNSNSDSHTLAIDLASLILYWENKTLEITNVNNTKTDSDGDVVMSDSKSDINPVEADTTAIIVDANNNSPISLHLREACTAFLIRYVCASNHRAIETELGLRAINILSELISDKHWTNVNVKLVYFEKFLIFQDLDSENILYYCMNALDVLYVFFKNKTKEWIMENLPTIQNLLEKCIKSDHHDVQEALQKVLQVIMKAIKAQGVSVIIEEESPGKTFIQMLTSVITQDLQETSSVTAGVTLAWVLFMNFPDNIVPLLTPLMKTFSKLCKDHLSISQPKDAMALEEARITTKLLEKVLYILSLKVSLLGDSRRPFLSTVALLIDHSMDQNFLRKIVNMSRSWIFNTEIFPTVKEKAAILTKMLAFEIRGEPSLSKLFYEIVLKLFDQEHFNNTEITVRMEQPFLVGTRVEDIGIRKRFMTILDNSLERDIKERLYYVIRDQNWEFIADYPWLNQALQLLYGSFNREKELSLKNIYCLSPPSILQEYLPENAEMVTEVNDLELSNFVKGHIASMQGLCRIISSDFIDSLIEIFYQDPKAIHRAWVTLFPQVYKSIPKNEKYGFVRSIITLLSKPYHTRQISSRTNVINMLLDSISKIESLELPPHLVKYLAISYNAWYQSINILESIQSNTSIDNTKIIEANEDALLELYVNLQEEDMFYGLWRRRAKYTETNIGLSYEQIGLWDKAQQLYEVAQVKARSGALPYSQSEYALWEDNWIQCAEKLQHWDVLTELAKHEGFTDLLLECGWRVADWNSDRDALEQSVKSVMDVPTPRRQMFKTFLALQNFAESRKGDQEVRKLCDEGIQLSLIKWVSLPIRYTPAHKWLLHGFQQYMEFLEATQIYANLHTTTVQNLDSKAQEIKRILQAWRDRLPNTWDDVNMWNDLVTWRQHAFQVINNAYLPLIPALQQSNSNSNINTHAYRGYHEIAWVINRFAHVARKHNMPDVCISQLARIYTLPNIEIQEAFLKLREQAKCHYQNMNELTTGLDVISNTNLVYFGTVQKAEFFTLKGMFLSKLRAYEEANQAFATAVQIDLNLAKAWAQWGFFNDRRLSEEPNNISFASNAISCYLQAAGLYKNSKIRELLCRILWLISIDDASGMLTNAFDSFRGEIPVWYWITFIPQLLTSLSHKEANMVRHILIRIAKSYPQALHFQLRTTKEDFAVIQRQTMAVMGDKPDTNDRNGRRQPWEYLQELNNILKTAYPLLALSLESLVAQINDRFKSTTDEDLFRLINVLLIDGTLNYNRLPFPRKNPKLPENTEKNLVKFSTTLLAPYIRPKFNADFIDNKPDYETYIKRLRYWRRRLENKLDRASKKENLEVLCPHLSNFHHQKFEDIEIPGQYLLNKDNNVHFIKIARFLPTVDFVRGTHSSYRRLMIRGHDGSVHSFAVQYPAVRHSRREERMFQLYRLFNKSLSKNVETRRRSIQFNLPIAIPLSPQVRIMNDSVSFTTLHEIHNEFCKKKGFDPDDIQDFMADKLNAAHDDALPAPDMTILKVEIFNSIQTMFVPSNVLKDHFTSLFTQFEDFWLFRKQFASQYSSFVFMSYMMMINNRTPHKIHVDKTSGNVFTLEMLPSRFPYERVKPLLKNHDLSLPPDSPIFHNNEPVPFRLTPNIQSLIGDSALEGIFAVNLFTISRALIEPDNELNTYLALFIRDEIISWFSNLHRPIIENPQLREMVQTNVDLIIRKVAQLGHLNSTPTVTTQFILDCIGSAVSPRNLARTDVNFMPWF
The assay “Eaf1” deals with B7. Put plainly: cryo-EM structure.

Here are results for 7 molecules from publication doi:10.1101/2022.07.12.499507 (bioRxiv, 2022).

B1: the binding result with Yng2 and in the assay with Epl1 was “binds” throughout.

For B2, the binding result with Tra1 is given as “binds”.

For the molecule B3, in the assay with Epl1, the binding result is “binds”.

B4: the binding result with Eaf1 is reported as “binds”.

Consider B5, for which, in the assay with Eaf1, the binding result is “binds”.

On to B6, for which the binding result with Epl1 is “binds”.

B7: in the assay with Tra1, the binding result was “binds”.
